Experimental data from US6284456, “Transcriptional coactivator that interacts with Tat protein and regulates its binding to TAR RNA, methods for modulating Tat transactivation, and uses therefor” (The Salk Institute for Biological Studies, dated 2001).

Target: cyclin T1 (native 87 kDa protein of HeLa nuclear extract) (human)
Experiment: GST-Tat bead pull-down from HeLa nuclear extract, SDS-PAGE, silver stain

cyclin T1 (native 87 kDa protein of HeLa nuclear extract) (human), sequence (chain, as listed by the source limits assumed): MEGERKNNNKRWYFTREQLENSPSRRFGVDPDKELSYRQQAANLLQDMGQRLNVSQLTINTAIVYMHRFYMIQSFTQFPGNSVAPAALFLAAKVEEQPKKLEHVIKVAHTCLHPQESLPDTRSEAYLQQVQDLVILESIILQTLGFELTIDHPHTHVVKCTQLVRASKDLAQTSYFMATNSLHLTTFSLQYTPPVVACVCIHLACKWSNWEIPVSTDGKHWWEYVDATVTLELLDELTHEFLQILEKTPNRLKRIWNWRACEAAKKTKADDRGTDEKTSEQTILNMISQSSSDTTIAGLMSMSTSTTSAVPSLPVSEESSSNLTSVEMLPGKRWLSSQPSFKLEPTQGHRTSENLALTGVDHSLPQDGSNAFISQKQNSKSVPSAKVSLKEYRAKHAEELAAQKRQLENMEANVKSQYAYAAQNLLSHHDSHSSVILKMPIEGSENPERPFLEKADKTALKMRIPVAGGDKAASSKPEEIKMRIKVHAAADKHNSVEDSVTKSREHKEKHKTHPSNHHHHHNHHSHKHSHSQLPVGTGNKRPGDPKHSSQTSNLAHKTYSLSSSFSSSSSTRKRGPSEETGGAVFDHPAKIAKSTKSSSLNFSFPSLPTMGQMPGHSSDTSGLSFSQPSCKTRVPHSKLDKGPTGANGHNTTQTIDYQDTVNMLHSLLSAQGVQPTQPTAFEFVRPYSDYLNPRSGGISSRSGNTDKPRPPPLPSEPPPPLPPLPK

MEPVDPRLEPWKHPGSQPKTACTNCYCKKCCFHCQVCFITAALGISYG (other) [GST-Tat-1 K41A (aa 1-48)]
binding result: no binding
